{"source": "paper PMC9146797", "about": "“[^99mTc]Tc-Labeled Plectin-Targeting Peptide as a Novel SPECT Probe for Tumor Imaging” (Pharmaceutics, 2022)", "key": {"CCK-8 cytotoxicity assay": {"assay": "CCK-8 cytotoxicity assay", "type": "cell-based", "conditions": "C6 and BEAS-2B cells, PTP 0-200 µg/mL, CCK-8, absorbance 450 nm, BxPC-3, C6, BEAS-2B cells (Figure S1), read-out: cell viability", "experimental": "CCK-8 assays were used to assess the potential cytotoxic effects of PTP on normal and tumor cell lines. Briefly, taking BxPC-3 cells as an example, the cells were seeded into 96-well plates at a density of 1 × 10^4 per well with RPMI-1640 medium and 10% FBS. After 24 h, the medium was replaced with 100 µL of fresh medium containing different concentrations of PTP (0–200 µg/mL) for another 24 h. Next, 10 µL of CCK-8 solution was added, and the cells were subsequently cultured for 1.5 h. Absorbance at 450 nm was measured using a Varioskan Flash multimode microplate reader (Thermo Fisher Scientific, Waltham, MA, USA). The cytocompatibility of PTP was also assessed in C6 and BEAS-2B cells using the same method."}, "BALB/c nude mice": {"tested_on": "BALB/c nude mice", "assay": "Preliminary toxicity study in vivo", "experimental": "To assess the preliminary safety in vivo, five BALB/c nude mice were treated with PTP at a single dose (1 mg, 100 µL), and another five mice treated with saline were used as the control group. The body weight, physical activity, and death of each mouse were recorded during the following seven days. The major organs of the mice, including the heart, liver, spleen, lung, and kidneys, were harvested for histological examination."}, "[1]": {"assay": "In vitro stability in FBS (RCP by ITLC)", "type": "in vitro ADME, bovine", "conditions": "37 °C, 0-6 h", "experimental": "The [^99mTc]Tc-labeled PTP was characterized using an Agilent 1260 HPLC system (Agilent Technologies, Santa Clara, CA, USA) equipped with a UV-vis detector (λ = 220 nm) and a radioactive flow detector (BioScan, Poway, CA, USA). A SunFire C18 column (5 µm, 4.6 × 250 mm, Waters, Japan) was used at a 1 mL/min flow rate with the following gradient method: 0.1% trifluoroacetic acid in H2O and CH3CN (0–20 min, 15–45% CH3CN). The RCP of [^99mTc]Tc-HYNIC-PTP was determined by radio-HPLC and could also be rapidly analyzed by ITLC in a system consisting of silica gel 60 F254 TLC plates (Merck, Germany) and 50% acetonitrile as mobile phase. To assess the stability in vitro, the formed [^99mTc]Tc-HYNIC-PTP (500 μL, 1 mCi) was mixed with 500 μL of PBS (0.1 M, pH = 7.4) and 500 µL of cysteine solution (100-fold molar excess over the PTP) at room temperature, and 500 µL of FBS at 37 °C. The RCPs were tested by ITLC at different time intervals (0–6 h)."}, "healthy ICR mice": {"tested_on": "healthy ICR mice", "assay": "Pharmacokinetics in blood", "type": "in vivo", "conditions": "for radioactivity in blood: i.v. 20 µCi", "experimental": "The pharmacokinetic profile of [^99mTc]Tc-HYNIC-PTP was investigated in healthy ICR mice. The mice were randomly divided into nine groups (n = 3), and each mouse was intravenously injected with [^99mTc]Tc-HYNIC-PTP at a dose of 20 µCi in a 200 µL solution. One hundred microliters of blood from each mouse was immediately collected and weighed at designated times (1, 2, 5, 15, 30, 60, 120, 240, and 360 min), and radioactivity was measured using a γ-counter (CAPINTEC, USA) to calculate the percent uptake of the injected dose per gram (%ID/g). In addition, the pharmacokinetic data were analyzed by DAS 2.0 (Shanghai, China) using a two-compartment model to calculate the half-life of [^99mTc]Tc-HYNIC-PTP in the blood."}, "[2]": {"tested_on": "tumor-bearing mice (U87, C6, A549, 4T1, and BxPC-3)", "assay": "SPECT imaging in vivo", "conditions": "i.v. 200 µL of 10 mCi/mL, 0.5-4 h", "experimental": "The feasibility of [^99mTc]Tc-HYNIC-PTP as a SPECT probe for tumor imaging was examined using established subcutaneous tumor models. Briefly, [^99mTc]Tc-HYNIC-PTP solution (200 µL, [^99mTc]Tc = 10 mCi/mL, corresponding to 2 µg of HYNIC-PTP) was intravenously injected into tumor-bearing mice. SPECT images were acquired 0.5, 1, 2, and 4 h after injection using a SPECT imaging system equipped with a Xeleris 2.0 workstation and low-energy general-purpose collimators (Infinia, Denver, CO, USA). After SPECT imaging, the tumors and muscle tissues were excised to confirm plectin expression levels by immunohistochemistry. Briefly, excised specimens were fixed in formalin and embedded in paraffin. The sections (5 μm) were subjected to heat treatment in a citrate solution for antigen retrieval and blocking with 3% bovine serum albumin for 30 min. Then the sections were incubated with anti-plectin primary antibody (1:200) overnight at 4 °C. After incubation with secondary antibody (K5007, DAKO, Carpinteria, CA, USA) at room temperature for 50 min, the slides were treated with 1:100 DAB (K5007, DAKO, USA) and counterstained with hematoxylin. At least three sections of each specimen were chosen, and 5–10 high-power visual fields were randomly selected to calculate the positive area of staining. The average areas were then used to plot histograms."}, "[3]": {"conditions": "blood, two-compartment model, DAS 2.0"}}, "note": "Where a SMILES comes first, the peptide text is derived from it. Where no end group is shown, it is not given here.", "data": [{"compound": "KTLLPTP [PTP]", "values": [{"measurement": "viability at 24 h", "setting": "CCK-8 cytotoxicity assay", "value": "> 90", "unit": "%"}, {"measurement": "death of mice", "setting": "BALB/c nude mice; single dose 1 mg in 100 µL, five mice, seven days, vs saline", "value": "None of the mice died"}, {"measurement": "body weight and physical activity", "setting": "BALB/c nude mice; single dose 1 mg in 100 µL, within seven days, vs saline group", "value": "no significant difference"}, {"measurement": "H&E staining of main organs (heart, liver, lung, spleen, kidneys)", "setting": "BALB/c nude mice; single dose 1 mg, vs saline group (Figure S2)", "value": "no significant difference in tissue damage, necrotic areas, or abnormalities"}]}, {"compound": "CC(C)C[C@H](NC(=O)[C@@H](NC(=O)[C@H](CCCCN)NC(=O)c1ccc(NN)nc1)[C@@H](C)O)C(=O)N[C@@H](CC(C)C)C(=O)N1CCC[C@H]1C(=O)N[C@H](C(=O)N1CCC[C@H]1C(=O)O)[C@@H](C)O", "note": "[[^99mTc]Tc-HYNIC-PTP, metal not drawn] (HELM PEPTIDE1{[NNc1ccc(C(=O)[*:2])cn1].K.T.L.L.P.T.P}$$$$V2.0)", "values": [{"measurement": "change of RCP in FBS", "setting": "[1]", "value": "no evident changes in RCPs"}, {"measurement": "radioactivity in blood", "setting": "healthy ICR mice; 1 min post-injection, n = 3, γ-counter", "value": 14.52, "unit": "%ID/g"}, {"measurement": "radioactivity in blood", "setting": "healthy ICR mice; 30 min post-injection, n = 3", "value": 1.35, "unit": "%ID/g"}, {"measurement": "radioactivity in blood", "setting": "healthy ICR mice; 360 min post-injection, n = 3", "value": "Less than 0.01 %ID/g"}, {"measurement": "clear-phase half-life (t1/2 beta)", "setting": "healthy ICR mice; [3]", "value": 9.17, "unit": "min"}, {"measurement": "distribution-phase half-life (t1/2 alpha)", "setting": "healthy ICR mice; [3]", "value": 0.88, "unit": "min"}, {"measurement": "route of clearance", "setting": "[2]", "value": "predominantly cleared through the urinary system"}]}]}
